B1: HDV Ribozyme (parent)
chain: GGCCGGCAUGGUCCCAGCCUCCUCGCUGGCGCCGGCUGGGCAACAUUCCGAGGGGACCGUCCCCUCGGUAAUGGCGAAUGGGACCCA

In this series the parent is B1. Briefly: self-cleavage, relative activity (ratio to wild type); higher = more cleavage; co-transcriptional.
Take GGCCGGCAUGGUCCCAGCCUCUUCGCUGGCGCCGGCUGGGCAACAUUCCGAGGGGACCGUCCCCUCGGUAAUGGCGAAUGGGCCCCA: the self-cleavage was 0.298.

For GGCCGGCAUGGUCCCAGCCUCUUCGCUGGCGCCGGCUGGGCAACAUUCCGAGGGGACCGUCCCCUCGGUAAUGGCGAAUGGGACCCU, the self-cleavage was 0.644.

As to GGCCGGCAUGGUCCCAGCCUCUUCGCUGGCGCCGGCUGGGCAACAUUCCGAGGGGACCGUCCCCUGGGUAAUGGCGAAUGGGACCCA, the self-cleavage amounted to 0.814. Regarding GGCCGGCAUGGUCCCAGCCUCUUCGCUGGCGCCGGCUGGGCAACAUUCCGAGGGGACCGUCCCCUUGGUAAUGGCGAAUGGGACCCA, the self-cleavage came to 0.604. The result for GGCCGGCAUGGUCCCAGCCUCUUCGCUCGCGCCGGCUGGGCAACAUUCCGAGGGGACCGUCCCCUCGGUAAUGGCGAAUGGGACCCA reads 0. On to GGCCGGCAUGGUCCCAGCCUCUUCGCUAGCGCCGGCUGGGCAACAUUCCGAGGGGACCGUCCCCUCGGUAAUGGCGAAUGGGACCCA, for which the self-cleavage came out at 0.0804. With GGCCGGCAUGGUCCCAGCCUCGUCGCUGGCGCCGGCUGGGCAACAUUCCGAGGGGACCGUCCCCUCGGUAAUGGCGAAUCGGACCCA, the self-cleavage came to 0.136. The result for GGCCGGCAUGGUCCCAGCCUCUUCGCUGGCGCCGGCUGGGCAACAUUCCGAGGGGACCGUCCCCUCGGUACUGGCGAAUGGGACCCA reads 0.623; that for GGCCGGCAUGGUCCCAGCCUCUUCGCUGGCGCCGGCUGGGCAACAUUCCGAGGGGACCGUCCCCUCGGUAAUGGCGAAUGGGACGCA, 0.811; that for GGCCGGCAUGGUCCCAGCCUCGUCGCUGGCGCCGGCUGGGCAACAUUCCGAGGGGACCGUCCCCUCGCUAAUGGCGAAUGGGACCCA, 0.0354. The result for GGCCGGCAUGGUCCCAGCCUCUUCGCUGGUGCCGGCUGGGCAACAUUCCGAGGGGACCGUCCCCUCGGUAAUGGCGAAUGGGACCCA reads 0.194; that for GGCCGGCAUGGUCCCAGCCUCUUCGCUGGAGCCGGCUGGGCAACAUUCCGAGGGGACCGUCCCCUCGGUAAUGGCGAAUGGGACCCA, 0.117. The result for GGCCGGCAUGGUCCCAGCCUCGUCGCUGGCCCCGGCUGGGCAACAUUCCGAGGGGACCGUCCCCUCGGUAAUGGCGAAUGGGACCCA reads 0.0852; that for GGCCGGCAUGGUCCCAGCCUCUUCGCUGGCGCCGGCUGGGCAACAUUCCGAGGUGACCGUCCCCUCGGUAAUGGCGAAUGGGACCCA, 0.808; that for GGCCGGCAUGGUCCCAGCCUCUUCGCUGGCGCCGGCUGGGCAACAUUCCGAAGGGACCGUCCCCUCGGUAAUGGCGAAUGGGACCCA, 0.709.

For GGCCGGCAUGGUCCCAGCCUCUUCGCUGGCGCCGGCUGGGCAACAUUCCGAGGGGGCCGUCCCCUCGGUAAUGGCGAAUGGGACCCA, the self-cleavage is 0.895. The result for GGCCGGCAUGGUCCCAGCCUCUUCGCUGGCGCCGGCUGGGCAACAUUCCGAGGGGACCGUCCCCUCGGUAAUGGCGAAUGGGAACCA reads 0.408; that for GGCCGGCAUGGUCCCAGCCUCGUCGCUGGCGCCGGCUGGGCAACAUUCCGAGGGGACCGUCCCCUCGGUAAUGGCGAAUGGCACCCA, 0.0378. Regarding GGCCGGCAUGGUCCCAGCCUCUUCGCUGGCGCCGGCUGGGCAACAUUCCGAGGGUACCGUCCCCUCGGUAAUGGCGAAUGGGACCCA, the self-cleavage is 0.732. With GGCCGGCAUGGUCCCAGCCUCUUCGCUGGCGCCGGCUGGGCAACAUUGCGAGGGGACCGUCCCCUCGGUAAUGGCGAAUGGGACCCA the figure was 0.635.

GGCCGGCAUGGUCCCAGCCUCUUCGCUGGCACCGGCUGGGCAACAUUCCGAGGGGACCGUCCCCUCGGUAAUGGCGAAUGGGACCCA: the self-cleavage came to 0.22.

Regarding GGCCGGCAUGGUCCCAGCCUCUUCGCUGGCGACGGCUGGGCAACAUUCCGAGGGGACCGUCCCCUCGGUAAUGGCGAAUGGGACCCA, the self-cleavage came to 0.117. The result for GGCCGGCAUGGUCCCAGCCUCGUCGCUGGCGCCGGCAGGGCAACAUUCCGAGGGGACCGUCCCCUCGGUAAUGGCGAAUGGGACCCA reads 0.0845; that for GGCCGGCAUGGUCCCAGCCUCGUCGCUGGCGCCGGCUGAGCAACAUUCCGAGGGGACCGUCCCCUCGGUAAUGGCGAAUGGGACCCA, 0.0817. With GGCCGGCAUGGUCCCAGCCUCGUCGCUGGCGCCGGCUGGGCAACAUGCCGAGGGGACCGUCCCCUCGGUAAUGGCGAAUGGGACCCA the figure was 0.0791; with GGCCGGCAUGGUCCCAGCCUCUUCGCUGGCGCCGGCUGGGCAACAUUCCGAGGGGACCGUCCCCUCGGUAAUGGCGACUGGGACCCA, 0.126; with GGCCGGCAUGGUCCCAGCCUCUUCGCUGGCGCCGGCUGGGCAACAUUCCGAGGGGACCGUCCCCUCGGUAAUGGCGAGUGGGACCCA, 0.314. As to GGCCGGCAUGGUCCCAGCCUCUUCGCUGGCGCCGGCUGGGCAACAUUCCGAGGGGACCGUGCCCUCGGUAAUGGCGAAUGGGACCCA, the self-cleavage stood at 0.545. Take GGCCGGCAUGGUCCCAGCCUCUUCGCUGGCGCCGGCUGGGCAACAUUCCGAGGGGACCGUCCGCUCGGUAAUGGCGAAUGGGACCCA: the self-cleavage was 0.782.

On to GGCCGGCAUGGUCCCAGCCUCUUCGCUGGCGCCGGCUGGGCAUCAUUCCGAGGGGACCGUCCCCUCGGUAAUGGCGAAUGGGACCCA, for which the self-cleavage was 0.0831. With GGCCGGCAUGGUCCCAGCCUCUUCGCUGGCGCCGGCUGGGCAACAUUCCGAGCGGACCGUCCCCUCGGUAAUGGCGAAUGGGACCCA the figure was 0.63; with GGCCGGCAUGGUCCCAGCCUCUUCGCUGGCGCCGGCUGGGCAACAUUCCGAGGGGACCGUCCCAUCGGUAAUGGCGAAUGGGACCCA, 0.786.

The record behind these values is the RNAGym collection of RNA variant scans (doi:10.7554/elife.80360).
